In patent US20230181681A1, “PEPTIDE FOR SUPPRESSING CORONAVIRUS AND USE THEREOF” (priority 2020, published 2023) one finds percent inhibition of the interaction between Spike CD-Full and N protein data, which are given here for 1 molecule.

This assay has as its target MERS-CoV N protein (MERS-CoV), K9N4V7.

TGCGTNCMGKLKCNRC (modifications not checked) [Spike CD-F] displayed a percent inhibition of the interaction between Spike CD-Full and N protein of 40%.
